Data from article PMC11540549 (Biochemistry, 2019).
No end group written: not given here.

T1: TCF19 (DDCAC) PHD (UniProt Q9Y242 296-342)
T1 sequence: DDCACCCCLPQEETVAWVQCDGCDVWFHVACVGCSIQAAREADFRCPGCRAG

B1: H3K4me3 peptide (residues 1-12) (peptide, UniProt P68431 2-13, looked up)
peptide: ARTK(Me3)QTARKSTG

Key:
[1] = biological target: TCF19 PHD C324A (UniProt Q9Y242); experiment: NMR titration
[2] = biological target: TCF19 PHD W307Y (UniProt Q9Y242); experiment: NMR titration
[3] = biological target: TCF19 PHD R330Y (UniProt Q9Y242); experiment: NMR titration
[4] = biological target: T1, TCF19 (DDCAC) PHD; experiment: other fluorescence titration

Molecule	Kd [1] [µM]	Kd [2] [µM]	Kd [3] [µM]	Kd [4] [µM]
H3K4me3 peptide (residues 1-12) (from UniProt P68431 2-13)	440	2000	400	–
B1	–	–	–	4.7
